Experiment [1] has as its target T1, His-tagged c-Myc (human, UniProt P01106 1-454, labelled with the NT-647-NHS dye).
T1 construct: c-Myc; plasmid constructed by Tsingke Biotechnology Co., Ltd. (Beijing); also called recombinant c-Myc protein; source: bacterial BL21 cells, purified (Ni-NTA agarose)
Nature of the experiment: MST; as the MST of MDK and c-Myc, after the addition of 1 µM ACT001. Particulars: both partners purified.

Experiment [2] addresses T1, His-tagged c-Myc. Nature of the experiment: MST; Monolith NT.115; NT-647-NHS-labelled c-Myc held constant (416 nM stock mixed 1:1), MDK in 16 serial dilutions; PBSP (1x PBS + 0.1% Pluronic F-127); standard treated capillaries. Particulars: both partners purified.

T1 sequence (P01106 whole entry): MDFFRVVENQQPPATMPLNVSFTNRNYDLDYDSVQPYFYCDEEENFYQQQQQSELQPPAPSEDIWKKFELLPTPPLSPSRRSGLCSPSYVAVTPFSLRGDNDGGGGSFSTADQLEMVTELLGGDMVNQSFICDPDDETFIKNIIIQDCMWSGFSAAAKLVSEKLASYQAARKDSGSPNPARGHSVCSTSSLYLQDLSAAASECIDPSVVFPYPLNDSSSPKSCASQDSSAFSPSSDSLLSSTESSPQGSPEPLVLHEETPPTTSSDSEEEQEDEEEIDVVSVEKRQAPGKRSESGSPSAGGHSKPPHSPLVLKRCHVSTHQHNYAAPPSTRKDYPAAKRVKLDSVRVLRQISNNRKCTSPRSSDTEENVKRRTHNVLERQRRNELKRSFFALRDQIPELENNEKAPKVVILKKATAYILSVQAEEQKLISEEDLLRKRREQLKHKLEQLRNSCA

B1: Recombinant human MDK protein (natural protein, UniProt P21741 21-143, looked up)
chain: VAKKKDKVKKGGPGSECAEWAWGPCTPSSKDCGVGFREGTCGAQTQRIRCRVPCNWKKEFGADCKYKFENWGACDGGTGTKVRQGTLKKARYNAQCQETIRVTKPCTPKTKAKAKAKKGKGKD
notes: recombinant human midkine, bought; also called midkine; source: bought: Zeye Biotechnology Corporation (ZY631H02P, Shanghai)
For orientation: Kd means the concentration at which binding is half-saturated. For the molecule B1, the equilibrium dissociation constant (Kd) was determined as 1540 nM in experiment [1] and 18.8 nM in experiment [2].

These data come from article PMC12137620, “Targeting the MDK/c‐Myc complex to overcome temozolomide resistance in glioma” (Clinical and Translational Medicine, 2025).
